Data published in the DeepSol protein solubility set.

Test: soluble on expression in E. coli; label from the status in PepcDB or PDB records

Sequence | soluble on expression in E. coli
GPGSMLRRTDRCGQRKVEKLLVANRGEIACRVFRTCREMHIRTVALFCEAERNAKHVVEADEAVCIGPPPAVNSYLRGDHIISVAKQLNVDAIHPGYGFLSENADFAEAVTRSGIEFIGPPASAISLMGSKSESKRIMEAAGVPVVPGYYGENQNVSFLAEEANRVGFPILIKAVSGGGGKGMKIVERPEDFAFMLESAKREAANFFKDDRVILERYVKRPRHIECQIFFDKHGRGVFFFERDCSVQRRYQKVLEEAPAPHLSMEMRQRIGEVALQAAKAVGYVGAGTVEFIFDTSTGDFYFMEMNTRLQVEHPVTEEVCRIKGAPLDLVKLQIKTAMGKPLTFSQEDVALVGSCIEARVYAESPERGFLPESGPLTFIREPFQGVRGPTRTRLDTGFCEGDNVLIHYDPMLAKVISWGRNREDALKGLRQALGEYKVAGINTNIEFLKRCCEAPEFARGGVTTNFISEHEKQLLNAPAVTPKVAAMAATAWLLNRCDNWRGAFRLNGDTSATVHFYIDNRPVEVRLHTEGANYHKIFFSVWDHEGSFAVGSGPVTSKHRDQRSIVNGFTFLFENGMRHTVLAVATEGDVTIIGSFGLHQIRLLPLTDGFGDASMAGGTSAKIVSPMPGKVSKFLVNSGDFVEKGQALMIVEAMKMEHPVKALQDGQVSFLVKEGEVVGSDHVLATVVQKE | not soluble
MGSDKIHHHHHHMETIKAIHTRHSVRAFKDDPIEPQLLTMIVTDAQQTPSWGNSQPWQVYIATGHALTNIKQHYATAAEQGIAEDADLAKVHRGDFSAFASQNMGHWVGTFRPVIDSDPTTYWDSRANLYRAPAIAYLVLDANPNSWSIYDLGAFSQTLMLAATARGVQSVPSYELVKYPAIVRNALGMPANKVVAMGIALGYEKPEKPLNQFRTDRVATPQVLHIIN | not soluble
MGSDKIHHHHHHMMSNTAATVNHSQKVDLFIVGGGMIGSALAARLAPSGMRIALLENHQPAAFDPSSPPDLRVSALSPASIDFLEQAQAWPAIQTMRTAPFKRMQVWENRQDHGTMFDAAEVDAPWLGHIVENRLVQLACLEIVEGYDNVTLLCPGEIGQIAYRPEGSHIRLNSGQIFEATLLIGADGANSQVRKAAGIALDSQQYPMHALVATVAIQGGERDITWQRFTPDGPQSLLPLPGDYASLVWYHRPSEVRRLLTLDDDALLDAFRQHFPAVLPEITGLVRRGSFPLARSHAQAYVRPGVALIGDAAHTIHPLAGQGVNLGFQDAAVLSETLLRAWQTGADLAALPHLQRYERQRKLANLVMQRAMDAFSYGFSNDVAPLRLLRNLGLRFADHTGPIKRQVIRYALGLGPQPSLPLPSGLSKLLP | not soluble
MGSDKIHHHHHHMTLKDIAEMAGVSTMTVSNVINGKTSRVSQKTRDKINSIIEEYNYVPNMNARSLSNNSSHIIGVVTFLEEKEYASGYNYFENPYVSTMIGTIETELHKNGYFTMLQSVSRSSDILSLVKNWNVDGMILVFPTSAQNLEKLMDAANCPIATFDSNYSHPNLINVISDDEKGLYLSTKYMINHGHTEIAFVADYEGNIVLTKRFNGYKKALEDSHIPFRPEYIFSYPPSYEGGIEAGRAIAGSKSPITAVVTTADICAIGIMEGARLGGYRVPIDLSVIGYDNLNLCQYTVPKLTSVSQNVPKKARLATELLLKKIHDNESDSNLGEIIDVEIVDRQSVISLY | not soluble
MSLATEQIQHIAIVGCVHGKYREMYRQLSEYEKSTGKEISFVICTGDMQTLRYEADLVYLKVPPKYKQMGDFHLYYEGKEKAPYLTLFIGGNHESSNVLLHLYNGGFVCFNMYYLGVCSCININGLRIVGVSGIYKSFDEKKPYTYPPSPNDVVSLFHTRNYVIQMLSNLSQSSQIDISLSHDWPQGIVMKGNYKQLYRFQPGFKKDGASLGSPINKVILNTLKPKYWISGHMHCEYHAEEGPTHFIALGKIGYKNAISYLDLPLKQKTDLEYDKDWVCNLIMTWPAFSNKAQFPDLSYSISELLSKRTKELDKKIIELWEKYIGLKIIYDSDTFDIQFTSRRFYIEKIYNELNINEGHHHHHH | soluble
MSLNTVLRLPLKYPSTNKELKSHEYFESQIAYTGCLIATTTHMVDHISWRLNNDLKTITLTPICISNPFQLECRTISLLLPSQVYPHCIDAVYHGEEGGYLVVDVIDENYLWITLRIEMNDFLHNTKNFRPLTLDQFESWGHISVPYSFELRSNPYCLRVLDERNVVVSLKDGGLLHFQRSSVLADFNVFNCEESAHFHLGGILDGIFKSGRADLTVDGVSSNAAIDATIVPDPSKSLIATLTVSKTIKFWDLKEHSLLRERTIHPQDTNTWLSFGPARYLQCYGNVLGVHSLLQTKHSTSIDFWDVSPLKEDQKSYKILHTVELLSPTINGAPSDSPFSNDIWFIQDFTLKFEKGNFTVLWKSNNSSILTIYDLKNLAENDKPPKLSQWTLSGSEGHHHHHH | not soluble
MSLKILVIGPSWVGDMMMSQSLYRTLKARYPQAIIDVMAPAWCRPLLSRMPEVNEAIPMPLGHGALEIGERRRLGHSLREKRYDRAWVLPNSFKSALIPFFANIPHRTGWRGEMRYGLLNDARVLDKDAWPLMVERYVALAYDKGVMRAAKDLPQPLLWPQLQVSEGEKSLMCSDFSLSSERPLIGFCPGAEFGPAKRWPHYHYAELAKQLINEGYQVVLFGSAKDHEAGNEILAALNSEQQAWCRNLAGETQLEQAVILIAACKAIVTNDSGLMHVAAALDRPLVALYGPSSPDFTPPLSHKARVIRLITGYHKVRKGDTAQGYHQSLIDITPQRVLEELHSLLSEEGVEGGSHHHHHH | soluble
GKKAVINDSNTPLHLLQPAYQGTYGDLTPEQVKKDIDRVFAYIDKETPARVVDKNTGKVITDYTAMGDEAQLERGAFRLASYEWGVTYSALIAAAETTGDKRYTDYVQNRFRFLAEVAPHFKRVYEEKGKTDSQLLQILTPHALDDAGAVCTAMIKLRLKDESLPVDGLIQNYFDFIINKEYRLADGTFARNRPQRNTLWLDDMFMGIPAVAQMSRYDKEAKNKYLAEAVKQFLQFADRMFIPEKGLYRHGWVESSTDHPAFCWARANGWALLTACELLDVLPEDYPQRPKVMDYFRAHVRGVTALQSGEGFWHQLLDCNDSYLETSATAIYVYCLAHAINKGWIDAIAYGPVAQLGWHAVAGKINEEGQVEGTCVGTGMAFDPAFYYYRPVNVYAAHGYGPVLWAGAEMIRLLNTQHPQMNDSAVQYYQEKQKTTAPIFAVDSE | soluble
GPGSMVAPAQRTSVYVGDLPIDLPRPEEAINNLFSTVAPVVSVKVCRDMATQRSLGYGYVNFQTTADAEKVIDALNYTGIAPGRQIRVMFSIRDPLQRKSGMNNVFVKKLDTAINAKELQAAFSKCGRVLSCKVALDSAGNSKGYGFVQFETADGTKAALEMNGSKLGDSEVVVAPFVRRVDREAMAAKSFRNIYIKNITASATEADVKAIVEEFGKVDSLFLSEHARFPTKFALVAFEEHQAAVQAIAALNESEESGLTEKAVKLVVCRALSKSERDREKKKAASLYQNHGRNLYIKHLPDDITDDRLREIFEPFGKITSCAIMKEPNGTLKGFAFVCFEDKQHASAALRSLNGHPLEHSAKPLYVSHAEQKDMRIRLLQQRRAAMRHQSRMAPLMNTFPQQWPRHPFPHMVPPMMPPPPPPNMGMPQFMSGPMIRRPVMEPHLMQGEPMRPPNRYTQAREQYPPQQRQDGVDMNYLSTLSPEQQKNYLGELLYSRILPLESSNAAKITGMLLEMSREEIFEILADHFALLSKIQEANAVLQQHTGN | soluble
MGNRIPDEIVDQVQKSADIVEVIGDYVQLKKQGRNYFGLCPFHGESTPSFSVSPDKQIFHCFGCGAGGNVFSFLRQMEGYSFAESVSHLADKYQIDFPDDITVHSGARPESSGEQKMAEAHELLKKFYHHLLINTKEGQEALDYLLSRGFTKELINEFQIGYALDSWDFITKFLVKRGFSEAQMEKAGLLIRREDGSGYFDRFRNRVMFPIHDHHGAVVAFSGRALGSQQPKYMNSPETPLFHKSKLLYNFYKARLHIRKQERAVLFEGFADVYTAVSSDVKESIATMGTSLTDDHVKILRRNVEEIILCYDSDKAGYEATLKASELLQKKGCKVRVAMIPDGLDPDDYIKKFGGEKFKNDIIDASVTVMAFKMQYFRKGKNLSDEGDRLAYIKDVLKEISTLSGSLEQEVYVKQLASEFSLSQESLTEQLSVFSKQNKPADNSGETKTRRAHLTTKARQKRLRPAYENAERLLLAHMLRDRSVIKKVIDRVGFQFNIDEHRALAAYLYAFYEEGAELTPQHLMARVTDDHISQLLSDILMLQVNQELSEAELSDYVKKVLNQRNWSMIKEKEAERAEAERQKDFLRAASLAQEIVTLNRS | not soluble
MHWGVGFASSRPCVVDLSWNQSISFFGWWAGSEEPFSFYGDIIAFPLQDYGGIMAGLGSDPWWKKTLYLTGGALLAAAAYLLHELLVIRKQQEIDSKDAIILHQFARPNNGVPSLSPFCLKMETYLRMADLPYQNYFGGKLSAQGKMPWIEYNHEKVSGTEFIIDFLEEKLGVNLNKNLGPHERAISRAVTKMVEEHFYWTLAYCQWVDNLNETRKMLSLSGGGPFSNLLRWVVCHITKGIVKREMHGHGIGRFSEEEIYMLMEKDMRSLAGLLGDKKYIMGPKLSTLDATVFGHLAQAMWTLPGTRPERLIKGELINLAMYCERIRRKFWPEWHHDDDNTIYESEESSEGSKTHTPLLDFSFYSRTETFEDEGAENSFSRTPDTDFTGHSLFDSDVDMDDYTDHEQCK | not soluble
MAPPKRRSTRPTTPAAPTDPPIEEKKPDLLIAYDSDEKFVFSFSEEGLTAKECAEKMNGFSTKEQFLTEVHVDEMLRFLTKVIIGRKGEPLKCLCCDRLYVSSSGFLIHIKKCSTKNEQDRLTDAQNKYRNEPSKWLNVRKKDQIATLKTIVGTNYTCFMIGCSLNFGSLKDLIEHLATCIGADYYSYKNRPDDFRKLSKKAKQAYTLDAVTKNKGIVKCLVCDKEYTNHMSIIYHIDRCQVDKSLQPWKCWRCGFDATAADAQEHLIDCGRTAEMKMFDRLPESSSFGFPIPGSSVPSTSEPTTSAAAAPTKRKRVTGGAPRATPRKDGTTLYRFRKSTISRSSNGIVTKKDKKLYEDQCSKIFENWKQKSAEIAFCDTLSNIANSKWKLSILDSNDQFYRIFTRQSVTLVSGKTLGLQQTVPPGIRLDALKSREMLDEDDAPKATVGYCGAPINSINVAPGKTRDGSDVICVTTFANDTDLESDSSCVQFWKHKLGKKKKSHLELWFLIHLPLRGTILHATWLQKQHNDEMMTSLIGYVAFSTTIGQILIYKIDESRVPEAPDRGDNVHVIVADPDLTLRLPKSTDTPDDTFLNADVKMEGDDIVVLPTRIDESTVPLLKIAWSYHNGGATLAALTALGAIAIWNLDGGDLDMPRVNIEESWQSPPSDIAFWNIDHLVVGFREKIVKVISIETWDVMLEDNTAKNAGSRVHTDNRIVRSFFMFQSDHTAFPYPNATNLTYVHCDIDTMTMILVPTGNTHQLLTWDVAMCPAVGTLLSSGIDGRLVASATGRFLGNMRHSYFANRNVMALKRRRILKESQTMEEYLKEVKMEGSAEGSTSTSTTKISDDKINEPLEESITEHTEVCQKMWLDVQFDEIFEPTRPEFSCRDQRIESLNCVDGTTSRDWPVSFTGGEAGLLFAVSVKLHIEEMDL | not soluble
MATVGGAFKDSLTQAQKDELHQIALKIVQDGKGILAADESTGTIGKRLDAINLENNETNRQKYRQLLFTTPNLNQHISGVILYEETFHQSTDKGEKFTDLLIKQGIVPGIKLDLGVVPLAGTIGEGTTQGLDKLAERAAAFKKGGCGFAKWRCVLNIGTHTPSHLGMLENANVLARYASICQANGLVPIVEPEVLCDGEHDLARAQKVTEQVLAFVYKALADHHVYLEGTLLKPNMVTPGQSSASKASHEAIGLATVTALRRGVPAAVPGITFLSGGQSELDATANLNAINSVQLGKPWKLTFSYGRALQASVLKAWGGKDENIAAAQKTLLHRSKANGDASLGKYAGEDAAGAAAESLFVAKHSY | not soluble
MDISVIDATKVNTETGLHIGESNAPVKMIEFINVRCPYCRKWFEESEELLAQSVKSGKVERIIKLFDKEKESLQRGNVMHHYIDYSAPEQALSALHKMFATQDEWGNLTLEEVATYAEKNLGLKEQKDATLVSAVIAEANAAHIQFVPTIIIGEYIFDESVTEEELRGYIEK | soluble
